Three proteins from publication PMC2746992 can be followed below.

A word on the kcat: it is the number of substrate molecules converted per active site and unit of time at saturation. A word on the kcat/Km: it is the second-order rate constant that governs catalysis at low substrate concentration.

Holding throughout (assay): spectrophotometric, decrease in A260
Common to all, as to settings: 50 mM Tris-HCl, pH 7.5, 0.1 mM MnCl2, 25 °C

Substrate in data set [1]: O=C(O)/C=C\C=C/C(=O)O
The class given is biochemical, Pseudomonas protegens.

Substrate in data set [2]: O=C(O)/C=C\C=C/C(=O)O
The data set is classed as biochemical, Mycolicibacterium smegmatis.

Substrate in data set [3]: O=C(O)/C=C\C=C/C(=O)O
The class given is biochemical, Pseudomonas putida.

B1: MLE-1 from Pseudomonas fluorescens (MLE-PF, syn-MLE) (Pseudomonas protegens Pf-5) (protein)
chain: MHASAIESIETIIVDLPTIRPHKLAMHTMQNQTLVLIRLRCADGIEGLGESTTIGGLAYGNESPDSIKTNIDRFVAPLLIGQDASNINAAMLRLEQSIRGNTFAKSGIESALLDAQGKRLGLPVSELLGGRVRDALPVAWTLASGDTAKDIAEAQKMLDLRRHRIFKLKIGAGEVDRDLAHVIAIKKALGDSASVRVDVNQAWDEAVALRACRILGGNGIDLIEQPISRNNRAGMVRLNASSPAPIMADESIECVEDAFNLAREGAASVFALKIAKNGGPRATLRTAAIAEAAGIGLYGGTMLEGGIGTLASAHAFLTLNKLSWDTELFGPLLLTEDILAEPPVYRDFHLHVSKAPGLGLSLDEERLAFFRRD
Consider B1, for which, in data set [1], the Km result is reported as “(1.6 ± 0.2) × 10^-5 M”, the catalytic constant (kcat) is 110 ± 2 s⁻¹ and the kcat/Km turned out to be 7e+06 M⁻¹ s⁻¹.

B2: MLE-2 from Mycobacterium smegmatis (MLE-MS, anti-MLE) (Mycolicibacterium smegmatis MC2 155) (protein)
chain: MKIVAIGAIPFSIPYTKPLRFASGEVHAAEHVLVRVHTDDGIVGVAEAPPRPFTYGETQTGIVAVIEQYFAPALIGLTLTEREVAHTRMARTVGNPTAKAAIDMAMWDALGQSLRLSVSEMLGGYTDRMRVSHMLGFDDPVKMVAEAERIRETYGINTFKVKVGRRPVQLDTAVVRALRERFGDAIELYVDGNRGWSAAESLRAMREMADLDLLFAEELCPADDVLSRRRLVGQLDMPFIADESVPTPADVTREVLGGSATAISIKTARTGFTGSTRVHHLAEGLGLDMVMGNQIDGQIGTACTVSFGTAFERTSRHAGELSNFLDMSDDLLTVPLQISDGQLHRRPGPGLGIEIDPDKLAHYRTDN
B2: in data set [2], the Km entry is given as “(5.6 ± 1) × 10^-4 M”, the kcat amounted to 78 ± 6 s⁻¹ and the kcat/Km was found to be 140000 M⁻¹ s⁻¹.

B3: MLE-1 from Pseudomonas putida (Pseudomonas putida) (protein)
chain: TSVLIERIEAIIVHDLPTIRPPHKLAMHTMQTQTLVLIRVRCSDGVEGIGEATTIGGLAYGYESPEGIKANIDAHLAPALVGLPADNINAAMLKLDKLAKGNTFAKSGIESALLDAQGKRLGLPVSELLGGRVRDSLEVAWTLASGDTARDIAEAQHMLEIRRHRVFKLKIGANPLAQDLKHVVAIKRELGDSASVRVDVNQYWDESQAIRACQVLGDNGIDLIEQPISRINRSGQVRLNQRSPAPIMADESIESVEDAFSLAADGAASIFALKIAKNGGPRAVLRTAQIAEAAGIALYGGTMLEGSIGTLASAHAFLTLRQLTWGTELFGPLLLTEEIVNEPPQYRDFQLHIPRTPGLGLTLDEQRLARFARR
On to B3, for which, in data set [3], the Km result was “(5.4 ± 0.5) × 10^-4 M”, the kcat is 11 ± 0.5 s⁻¹ and the specificity constant (kcat/Km) is 20000 M⁻¹ s⁻¹.
